Source: patent US20090156476A1 (NASCACELL TECHNOLOGIES, published 2009)
Changes are numbered by the printed parent chain. Ends that are not written are not given here.

B1: dimeric SE-AG-TP-040 (DSS-crosslinked dimer) (designed binder)
chain: GCVRLHESCLGQQVPCCDPAATCGGTALAIEGPTLRQWLAARACKGS
modifications: cysteine pairing not given here; also: dimer crosslinked by DSS, site of crosslink not given here
B2: dimeric SE-AG-TP-050 (DSS-crosslinked dimer) (designed binder)
chain: B1 chain with A27C, A40C
modifications: cysteine pairing not given here; also: dimer crosslinked by DSS, site of crosslink not given here
B3: dimeric SE-ET-TP-020 (DSS-crosslinked dimer) (designed binder)
chain: GCIEGPTLRQWLAARACKQDSDCLAGCVCGPNGFCGS
modifications: cysteine pairing not given here; also: DSS-crosslinked dimer, crosslink site not given here
B4: dimeric SE-ET-TP-030 (DSS-crosslinked dimer) (designed binder)
chain: GCIEGPTLRQWLAACKQDSDCLAGCVCGPNGFCGS
modifications: cysteine pairing not given here; also: DSS-crosslinked dimer, crosslink site not given here

What follows are binders tested against T1, TPOR/4Rα hybrid receptor (fusion of the hTPOR extracellular domain and the intracellular 4Rα domain from … (human, UniProt P40238 26-491; P24394 257-825, limits assumed) (assay: cell-based or functional assay).
T1 sequence (looked up): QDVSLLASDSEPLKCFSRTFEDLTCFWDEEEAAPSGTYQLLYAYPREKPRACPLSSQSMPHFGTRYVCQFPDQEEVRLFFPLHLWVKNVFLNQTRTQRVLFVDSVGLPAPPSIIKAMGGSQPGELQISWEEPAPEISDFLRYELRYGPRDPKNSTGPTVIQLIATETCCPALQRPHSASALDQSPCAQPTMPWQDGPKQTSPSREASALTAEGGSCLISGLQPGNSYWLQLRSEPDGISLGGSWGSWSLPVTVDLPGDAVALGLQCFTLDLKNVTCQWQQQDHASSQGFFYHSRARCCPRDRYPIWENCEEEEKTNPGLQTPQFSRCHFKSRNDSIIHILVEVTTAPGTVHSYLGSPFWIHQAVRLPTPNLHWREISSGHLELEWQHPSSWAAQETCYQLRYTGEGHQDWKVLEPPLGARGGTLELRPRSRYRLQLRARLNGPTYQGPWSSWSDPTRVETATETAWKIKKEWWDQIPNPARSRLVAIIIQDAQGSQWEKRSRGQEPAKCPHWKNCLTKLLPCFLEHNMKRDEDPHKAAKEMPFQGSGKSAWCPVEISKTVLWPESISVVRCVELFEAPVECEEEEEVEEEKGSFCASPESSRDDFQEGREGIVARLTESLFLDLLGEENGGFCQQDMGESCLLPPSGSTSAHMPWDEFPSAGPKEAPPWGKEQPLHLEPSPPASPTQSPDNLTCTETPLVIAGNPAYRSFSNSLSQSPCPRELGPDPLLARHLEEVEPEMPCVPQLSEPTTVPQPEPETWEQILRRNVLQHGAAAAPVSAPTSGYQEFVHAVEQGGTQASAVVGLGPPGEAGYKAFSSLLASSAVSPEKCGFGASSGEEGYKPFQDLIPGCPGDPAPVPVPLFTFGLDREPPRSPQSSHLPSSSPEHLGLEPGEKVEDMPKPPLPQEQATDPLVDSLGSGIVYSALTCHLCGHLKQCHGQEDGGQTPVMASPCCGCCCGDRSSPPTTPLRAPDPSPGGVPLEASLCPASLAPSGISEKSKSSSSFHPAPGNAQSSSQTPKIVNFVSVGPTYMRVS
B1 was tested, and the “Agonist EC50[nM] (Ba/F3 luciferase reporter assay)” value (shortened to “Agonist EC50[nM]”) was ~2 nM.
With B2 the “Agonist EC50[nM]” value was 2.5 nM.
In the case of B3, the “Agonist EC50[nM]” value is reported as 1.4 nM.
With B4 the “Agonist EC50[nM]” value was 2.5 nM.
